# Entries after “also recorded” stand apart in the source; their conditions may differ.
# What was measured:
# IGF-1R = molecular target: T1, IGF-1R (Mus musculus, UniProt Q60751); test: IGF-1R expression in tissues after systemic A12 (IHC, Western blot); type: in vivo, mice
# T1 construct: Western blot analysis for IGF-1R on lungs and spleen lysates at day 14 post-bleomycin; from tissue; host or cells: mouse lung, spleen, kidney
# Experimental: ICR male mice are anesthetized under pentobarbital (60 mg/kg, i.v.) anesthesia, the cervical region is shaved and the skin is incised for about 4 mm from under the larynx region along the median line. Next, the muscle layer covering upper trachea is peeled off to expose the trachea. Using a micro-syringe, physiological saline or bleomycin hydrochloride (0.03 mg/animal, manufactured by Nippon Kayaku) is administered tracheally (50 μl/animal) from the tracheal smooth muscle region between cricoid cartilage. After the administration, the incised region is closed and antibiotics are administered into the thigh intramuscularly in order to prevent infection. IGF-1R inhibitor, e.g., antibody to IGF-1 receptor (A12). The A12 antibody was administered intraperitoneally at the time of bleomycin administration and subsequently 2-3× per week at a dose of 40 mg/kg (initial experiments involved dosing 3× per week, and later experiments dosed 2× per week; results were the same). […] Controls included bleomycin-treated animals receiving saline injection in place of A12 antibody. […] Lung hydroxyproline content is measured as a measure of fibrosis. Changes in lung tissue histology are also monitored. […] Bronchoalveolar lavage fluid (BALF) total cell count was determined by trypan blue exclusion and cell differential was determined on Diff quick (Dade Behring Ag, Düdingen, Switzerland) stained cytospins. […]
# [1] = type: in vivo, mice; settings: absence of bleomycin, not shown
# Text: In the saline control group, most deaths occurred between 7 and 10 days, as expected in this model. […] In the absence of bleomycin, administration of A12 alone had no affect on survival, lung histology, BAL protein concentration or cell count (not shown).
# [2] = tested on: primary mouse lung fibroblasts; test: apoptosis assay (Cell Death Detection ELISA-plus), mouse lung fibroblasts; type: cell-based, C57BL6 mice; settings: serum-starved, 24 hours
# Experimental: A. Quantification of TUNEL IHC by number of TUNEL positive cells/total # of cells. Average ±SD of two mice/condition and at least 500 cells analyzed per condition. […] Mouse lung fibroblasts were serum starved overnight and then incubated with indicated concentration of IGF-1R antibody, A12. Apoptosis was measured by Cell Death ELISA-plus (Roche Applied Science). All experiments were done in triplicate and repeated at least twice. Apoptosis index is defined as ratio of experimental condition OD405nm/control (media alone) OD405nm. The data was analyzed using one-way ANOVA with Tukey's HSD post hoc test, and statistical significance (*) was determined at p<0.05.
# For apoptosis assays, primary mouse lung fibroblasts were plated in 96-well plates (20,000 cells/well) overnight and serum-starved for 24 hours. Functional blocking antibody to the type 1 IGF receptor (A12) was added to media at indicated concentration for 24 hours. At the end of the experiment, plates were centrifuged at 200×g for 10 minutes to prevent detached cells from being aspirated, and apoptosis was measured using the Cell Death Detection ELISA-plus System (Roche Applied Science, Penzberg, Germany), which detects cytosolic histone-complexed DNA fragments. All experiments were done in triplicate and repeated at least twice. Apoptosis index was defined as ratio of experimental condition OD405nm/control (media alone) OD405nm.
# T1 sequence (Q60751 31-1373): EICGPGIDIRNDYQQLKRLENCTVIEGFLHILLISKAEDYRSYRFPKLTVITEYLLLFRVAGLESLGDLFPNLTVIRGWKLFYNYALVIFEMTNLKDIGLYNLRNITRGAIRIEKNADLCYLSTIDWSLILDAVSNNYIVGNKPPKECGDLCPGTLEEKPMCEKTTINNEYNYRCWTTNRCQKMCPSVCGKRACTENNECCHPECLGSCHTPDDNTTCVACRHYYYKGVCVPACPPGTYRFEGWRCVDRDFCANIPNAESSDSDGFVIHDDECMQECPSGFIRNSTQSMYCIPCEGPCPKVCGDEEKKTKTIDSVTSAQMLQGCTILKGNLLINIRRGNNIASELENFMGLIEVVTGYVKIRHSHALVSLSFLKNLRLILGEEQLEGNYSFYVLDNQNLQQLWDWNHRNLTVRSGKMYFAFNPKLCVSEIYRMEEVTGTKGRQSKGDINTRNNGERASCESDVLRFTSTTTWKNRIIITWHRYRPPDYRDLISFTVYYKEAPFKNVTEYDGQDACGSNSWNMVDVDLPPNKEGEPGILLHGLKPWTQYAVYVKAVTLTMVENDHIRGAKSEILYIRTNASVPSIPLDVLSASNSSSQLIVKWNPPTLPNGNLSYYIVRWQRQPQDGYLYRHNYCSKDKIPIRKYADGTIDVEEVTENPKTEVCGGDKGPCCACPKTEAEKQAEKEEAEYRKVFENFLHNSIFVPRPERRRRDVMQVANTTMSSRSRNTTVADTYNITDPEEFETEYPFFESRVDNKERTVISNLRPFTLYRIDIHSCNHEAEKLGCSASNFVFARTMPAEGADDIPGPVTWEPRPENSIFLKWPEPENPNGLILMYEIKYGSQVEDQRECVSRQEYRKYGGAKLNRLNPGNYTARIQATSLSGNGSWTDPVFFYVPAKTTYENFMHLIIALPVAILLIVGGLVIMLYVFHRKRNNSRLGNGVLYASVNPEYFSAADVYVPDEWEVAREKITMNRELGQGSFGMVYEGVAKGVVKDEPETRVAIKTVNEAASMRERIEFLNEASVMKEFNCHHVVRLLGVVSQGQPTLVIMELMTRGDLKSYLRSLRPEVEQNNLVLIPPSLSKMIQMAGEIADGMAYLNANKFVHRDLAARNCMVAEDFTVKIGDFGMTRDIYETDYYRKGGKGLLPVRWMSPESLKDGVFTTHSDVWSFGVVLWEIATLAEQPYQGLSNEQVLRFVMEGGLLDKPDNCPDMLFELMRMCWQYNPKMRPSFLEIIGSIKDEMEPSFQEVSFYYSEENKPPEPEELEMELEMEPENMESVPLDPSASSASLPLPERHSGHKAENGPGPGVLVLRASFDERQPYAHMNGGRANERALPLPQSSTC
substance,measurement,setting,value
"A12: Function blocking antibody to the human type 1 IGF receptor, gift from ImClone Systems",IGF-1R expression in lungs,"IGF-1R; day 7 post-bleomycin, vs saline",marked decrease in IGF-1R expression; also recorded: decreased IGF-1R expression
same,IGF-1R in the kidney (Western blotting),IGF-1R; systemic effect of antibody,down-regulation of IGF-1R in the kidney
same,"survival, lung histology, BAL protein concentration or cell count",[1],had no affect
same,apoptosis of primary mouse lung fibroblasts,[2],dose-dependent increase in apoptosis; also recorded: Increased apoptosis
same,apoptosis of primary mouse lung fibroblasts,[2]; listed as IGF-1R antibody,increased apoptosis
